Results reported in IntAct's records for PubMed 24282027.

Tests used:
dyn1_human DNM1 = dyn1_human DNM1 (UniProt Q05193)
mfn1_mouse Mfn1 = mfn1_mouse Mfn1 (UniProt Q811U4)
Chain of UniProt Q811U4 (Q811U4 whole entry): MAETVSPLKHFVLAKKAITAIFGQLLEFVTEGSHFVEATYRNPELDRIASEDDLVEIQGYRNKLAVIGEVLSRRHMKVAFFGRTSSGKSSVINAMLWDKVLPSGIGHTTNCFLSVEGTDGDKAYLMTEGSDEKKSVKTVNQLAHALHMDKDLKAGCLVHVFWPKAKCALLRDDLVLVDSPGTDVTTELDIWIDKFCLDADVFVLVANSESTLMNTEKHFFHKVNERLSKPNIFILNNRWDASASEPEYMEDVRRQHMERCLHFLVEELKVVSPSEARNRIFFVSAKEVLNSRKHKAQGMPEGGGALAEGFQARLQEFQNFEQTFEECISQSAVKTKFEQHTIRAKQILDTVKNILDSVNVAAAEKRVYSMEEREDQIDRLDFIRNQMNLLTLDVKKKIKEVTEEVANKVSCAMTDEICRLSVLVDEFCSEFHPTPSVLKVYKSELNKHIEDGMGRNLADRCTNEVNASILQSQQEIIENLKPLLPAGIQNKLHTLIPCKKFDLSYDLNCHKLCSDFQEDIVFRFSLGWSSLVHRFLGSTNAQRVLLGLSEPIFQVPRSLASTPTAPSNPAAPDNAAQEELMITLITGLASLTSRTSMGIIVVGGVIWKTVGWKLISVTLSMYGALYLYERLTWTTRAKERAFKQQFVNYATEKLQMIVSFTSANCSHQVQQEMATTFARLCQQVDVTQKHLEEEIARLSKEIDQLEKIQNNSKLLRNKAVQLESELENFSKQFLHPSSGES

Chain of UniProt Q05193 (Q05193 whole entry): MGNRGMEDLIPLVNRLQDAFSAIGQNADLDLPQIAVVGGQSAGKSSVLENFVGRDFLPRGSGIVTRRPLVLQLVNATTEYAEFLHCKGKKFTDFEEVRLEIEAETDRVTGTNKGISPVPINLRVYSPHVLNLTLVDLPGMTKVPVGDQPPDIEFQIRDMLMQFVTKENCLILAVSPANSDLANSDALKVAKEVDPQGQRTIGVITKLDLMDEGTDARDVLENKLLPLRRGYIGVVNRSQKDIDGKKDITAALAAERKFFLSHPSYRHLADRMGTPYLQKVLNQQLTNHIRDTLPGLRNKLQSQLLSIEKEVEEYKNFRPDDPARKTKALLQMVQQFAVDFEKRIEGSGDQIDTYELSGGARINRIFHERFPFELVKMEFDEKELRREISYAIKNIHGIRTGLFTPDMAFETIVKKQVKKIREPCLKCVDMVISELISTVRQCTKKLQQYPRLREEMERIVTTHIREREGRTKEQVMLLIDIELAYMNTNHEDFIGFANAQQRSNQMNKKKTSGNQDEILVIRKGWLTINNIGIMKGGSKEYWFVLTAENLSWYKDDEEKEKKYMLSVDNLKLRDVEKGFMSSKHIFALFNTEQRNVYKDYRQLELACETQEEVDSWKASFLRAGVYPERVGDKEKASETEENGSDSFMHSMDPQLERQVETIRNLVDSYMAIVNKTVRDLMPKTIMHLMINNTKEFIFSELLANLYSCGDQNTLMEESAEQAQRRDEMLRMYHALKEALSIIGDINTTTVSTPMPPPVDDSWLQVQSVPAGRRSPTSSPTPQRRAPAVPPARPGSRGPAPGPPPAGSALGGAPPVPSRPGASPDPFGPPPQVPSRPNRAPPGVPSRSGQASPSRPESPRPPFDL

Leucine-rich repeat serine/threonine-protein kinase 2 (Homo sapiens), Q5S007 G2019S
effect of a mutation on the interaction (dyn1_human DNM1): increasing interaction | effect of a mutation on the interaction (mfn1_mouse Mfn1): increasing interaction
